Measured values as given in publication PMC2119541.
“And” between values parts separate entries of the source, which are not always exact repeats. Equal values may be shown once.

Key:
Test in all cases: radioligand binding
[1] = biological target: Englebreth-Holm sarcoma laminin (UniProt P19137)
collagen type III = collagen type III (UniProt P02461)
collagen type IV = collagen type IV (UniProt P02462)
collagen type IX = collagen type IX (UniProt P20849)
collagen type V = collagen type V (UniProt P20908)
[2] = biological target: laminin and collagen type IV (isotonic conditions with Ca2+)

Sequence of UniProt P20908 (P20908 38-1605, chain 1 of 2): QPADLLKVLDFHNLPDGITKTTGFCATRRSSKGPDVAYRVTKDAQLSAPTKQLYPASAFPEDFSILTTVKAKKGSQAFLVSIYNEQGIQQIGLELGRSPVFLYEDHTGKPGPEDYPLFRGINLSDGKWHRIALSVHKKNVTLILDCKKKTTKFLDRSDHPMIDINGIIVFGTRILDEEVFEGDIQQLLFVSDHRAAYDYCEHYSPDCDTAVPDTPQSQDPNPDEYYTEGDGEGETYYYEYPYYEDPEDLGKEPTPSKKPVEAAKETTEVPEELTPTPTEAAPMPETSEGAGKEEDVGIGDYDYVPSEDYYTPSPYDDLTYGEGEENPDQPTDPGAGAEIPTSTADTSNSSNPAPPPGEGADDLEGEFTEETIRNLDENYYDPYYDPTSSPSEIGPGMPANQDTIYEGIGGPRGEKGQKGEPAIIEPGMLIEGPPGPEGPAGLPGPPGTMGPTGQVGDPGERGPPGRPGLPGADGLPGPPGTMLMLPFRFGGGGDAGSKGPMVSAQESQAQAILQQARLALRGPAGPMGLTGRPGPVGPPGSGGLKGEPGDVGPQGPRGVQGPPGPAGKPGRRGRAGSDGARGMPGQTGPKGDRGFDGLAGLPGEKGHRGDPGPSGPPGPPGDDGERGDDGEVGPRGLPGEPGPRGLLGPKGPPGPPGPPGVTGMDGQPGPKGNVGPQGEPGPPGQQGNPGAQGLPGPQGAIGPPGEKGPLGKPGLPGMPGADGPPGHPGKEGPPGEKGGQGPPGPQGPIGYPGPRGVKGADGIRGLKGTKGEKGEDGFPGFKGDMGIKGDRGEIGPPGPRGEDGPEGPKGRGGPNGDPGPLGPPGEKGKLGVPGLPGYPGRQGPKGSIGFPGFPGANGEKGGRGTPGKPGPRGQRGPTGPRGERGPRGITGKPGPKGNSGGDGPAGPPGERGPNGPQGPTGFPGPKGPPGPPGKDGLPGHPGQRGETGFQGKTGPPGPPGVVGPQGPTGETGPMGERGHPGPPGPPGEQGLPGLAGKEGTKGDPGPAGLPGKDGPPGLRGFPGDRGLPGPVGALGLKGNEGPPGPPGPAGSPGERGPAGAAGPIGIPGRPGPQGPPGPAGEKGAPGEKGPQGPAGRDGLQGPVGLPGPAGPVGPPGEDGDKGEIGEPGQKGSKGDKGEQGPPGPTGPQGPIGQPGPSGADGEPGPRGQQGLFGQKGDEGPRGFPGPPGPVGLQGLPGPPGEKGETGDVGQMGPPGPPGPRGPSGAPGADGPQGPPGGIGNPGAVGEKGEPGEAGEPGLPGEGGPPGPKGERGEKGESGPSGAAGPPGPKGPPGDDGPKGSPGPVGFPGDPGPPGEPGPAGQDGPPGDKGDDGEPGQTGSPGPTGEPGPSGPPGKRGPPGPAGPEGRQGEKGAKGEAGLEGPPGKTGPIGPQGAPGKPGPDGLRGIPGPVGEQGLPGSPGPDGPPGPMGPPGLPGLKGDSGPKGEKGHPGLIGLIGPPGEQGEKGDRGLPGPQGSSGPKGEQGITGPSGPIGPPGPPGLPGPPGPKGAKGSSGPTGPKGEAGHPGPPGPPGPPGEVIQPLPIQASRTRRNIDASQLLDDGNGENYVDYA
Sequence of UniProt P20908 (P05997 27-1229, chain 2 of 2, further chain): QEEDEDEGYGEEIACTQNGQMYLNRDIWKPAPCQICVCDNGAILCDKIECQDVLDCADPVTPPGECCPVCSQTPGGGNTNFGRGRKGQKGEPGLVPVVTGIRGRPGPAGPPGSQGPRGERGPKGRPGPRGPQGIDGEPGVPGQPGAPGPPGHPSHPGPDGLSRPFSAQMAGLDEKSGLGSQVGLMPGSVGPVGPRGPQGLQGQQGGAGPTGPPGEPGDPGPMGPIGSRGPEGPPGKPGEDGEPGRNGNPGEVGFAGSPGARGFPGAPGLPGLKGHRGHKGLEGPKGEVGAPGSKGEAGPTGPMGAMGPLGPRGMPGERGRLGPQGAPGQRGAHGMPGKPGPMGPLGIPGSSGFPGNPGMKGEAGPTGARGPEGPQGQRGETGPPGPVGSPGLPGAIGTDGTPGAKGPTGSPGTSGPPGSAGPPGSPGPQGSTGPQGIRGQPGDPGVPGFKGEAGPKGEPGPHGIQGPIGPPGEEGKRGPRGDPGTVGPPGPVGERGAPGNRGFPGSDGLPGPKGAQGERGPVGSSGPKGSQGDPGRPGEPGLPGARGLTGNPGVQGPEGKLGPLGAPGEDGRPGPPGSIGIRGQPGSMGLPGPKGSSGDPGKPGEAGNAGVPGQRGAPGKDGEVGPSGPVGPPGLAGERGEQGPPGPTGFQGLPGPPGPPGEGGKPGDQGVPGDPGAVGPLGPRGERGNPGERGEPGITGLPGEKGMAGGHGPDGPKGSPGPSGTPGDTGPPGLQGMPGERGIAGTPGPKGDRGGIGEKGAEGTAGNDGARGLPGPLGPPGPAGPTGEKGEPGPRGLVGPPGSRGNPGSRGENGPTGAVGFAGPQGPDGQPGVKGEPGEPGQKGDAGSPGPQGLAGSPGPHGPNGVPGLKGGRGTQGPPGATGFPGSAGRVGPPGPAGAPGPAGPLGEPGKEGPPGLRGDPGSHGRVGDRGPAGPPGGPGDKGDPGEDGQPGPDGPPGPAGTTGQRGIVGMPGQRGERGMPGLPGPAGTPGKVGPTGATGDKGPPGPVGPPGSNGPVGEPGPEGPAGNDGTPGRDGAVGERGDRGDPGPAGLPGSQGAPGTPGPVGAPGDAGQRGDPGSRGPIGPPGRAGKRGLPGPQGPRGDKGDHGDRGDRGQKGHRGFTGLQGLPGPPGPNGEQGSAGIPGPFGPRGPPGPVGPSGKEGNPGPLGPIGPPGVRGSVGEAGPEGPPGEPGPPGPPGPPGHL
Sequence of UniProt P02461 (P02461 24-1221): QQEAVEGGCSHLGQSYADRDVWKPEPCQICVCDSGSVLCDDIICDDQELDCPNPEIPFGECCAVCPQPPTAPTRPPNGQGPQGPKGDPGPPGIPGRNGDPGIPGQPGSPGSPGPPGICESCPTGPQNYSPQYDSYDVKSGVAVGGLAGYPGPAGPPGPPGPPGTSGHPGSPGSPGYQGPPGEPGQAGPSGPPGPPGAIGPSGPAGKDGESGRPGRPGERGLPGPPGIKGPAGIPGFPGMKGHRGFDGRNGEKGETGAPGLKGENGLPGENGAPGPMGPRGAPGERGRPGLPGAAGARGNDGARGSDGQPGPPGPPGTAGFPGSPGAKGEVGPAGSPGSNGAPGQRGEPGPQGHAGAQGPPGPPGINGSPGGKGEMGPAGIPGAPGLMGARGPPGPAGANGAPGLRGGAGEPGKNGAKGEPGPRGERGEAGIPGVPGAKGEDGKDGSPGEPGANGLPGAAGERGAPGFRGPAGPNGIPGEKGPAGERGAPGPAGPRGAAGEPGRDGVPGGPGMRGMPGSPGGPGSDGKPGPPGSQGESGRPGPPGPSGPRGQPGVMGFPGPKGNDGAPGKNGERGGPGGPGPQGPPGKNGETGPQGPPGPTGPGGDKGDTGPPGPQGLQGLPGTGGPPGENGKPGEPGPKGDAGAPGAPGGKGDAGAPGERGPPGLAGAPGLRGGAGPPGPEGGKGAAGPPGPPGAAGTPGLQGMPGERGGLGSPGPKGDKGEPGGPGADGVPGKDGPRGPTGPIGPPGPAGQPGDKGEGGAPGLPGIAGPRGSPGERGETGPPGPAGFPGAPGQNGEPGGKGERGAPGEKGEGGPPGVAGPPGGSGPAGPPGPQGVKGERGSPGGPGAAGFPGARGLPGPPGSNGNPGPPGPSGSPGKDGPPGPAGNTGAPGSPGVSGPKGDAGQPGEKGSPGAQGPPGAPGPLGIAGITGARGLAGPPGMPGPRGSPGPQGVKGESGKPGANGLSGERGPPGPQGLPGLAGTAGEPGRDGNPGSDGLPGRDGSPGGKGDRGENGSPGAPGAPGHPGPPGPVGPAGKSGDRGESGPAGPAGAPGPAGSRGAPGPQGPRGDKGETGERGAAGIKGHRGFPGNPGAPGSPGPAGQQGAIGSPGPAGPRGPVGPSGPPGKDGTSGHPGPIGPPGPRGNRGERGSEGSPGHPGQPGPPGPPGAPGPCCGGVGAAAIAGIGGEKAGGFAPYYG

Substance astrochondrin (natural protein) has a fold binding over binding to BSA [1] of 3.5 fold, a percent of the total input bound [1] of 15% and a fold binding over binding to BSA (collagen type III) of 10 fold. For the same substance, the percent of the added astrochondrin bound (collagen type III) was under 40%, the percent of the total input bound (collagen type III) was under 80% and the percent of the total input bound at 15 mM NaCl (collagen type III) was 30%. For the same substance, the fold binding over binding to BSA (collagen type IV) was under 7 fold, the percent of the total input bound (collagen type IV) was 30% and the fold binding over binding to BSA (collagen type IX) was under 7 fold. For the same substance, the percent of the total input bound (collagen type IX) was 30%, the fold binding over binding to BSA (collagen type V) was 10 fold and the percent of the added astrochondrin bound (collagen type V) was under 40%. For the same substance, the percent of the total input bound (collagen type V) was under 80%, the percent of the total input bound at 15 mM NaCl (collagen type V) was 30% and the fold binding over binding to BSA [2] was 5 fold and 7 fold.
